Biological target: T1, human tissue factor pathway inhibitor (TFPI) (human, UniProt P10646 29-304, biotinylated in the ELISA (site not stated))
T1 construct: Full length TFPI and a short version, TFPIB161B (first two Kunitz domains), were both used for immunisation and ELISA; also called TFPI1; human TFPI1
T1 sequence: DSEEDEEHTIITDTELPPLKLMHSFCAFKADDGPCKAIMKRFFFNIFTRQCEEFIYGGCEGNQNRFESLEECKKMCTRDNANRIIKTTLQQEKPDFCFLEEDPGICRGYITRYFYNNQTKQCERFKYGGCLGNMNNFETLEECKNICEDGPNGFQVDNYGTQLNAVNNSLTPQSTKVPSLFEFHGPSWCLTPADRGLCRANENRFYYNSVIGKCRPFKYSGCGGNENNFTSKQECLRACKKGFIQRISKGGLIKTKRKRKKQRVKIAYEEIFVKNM
Assay: hybridoma screening; ELISA with antibody captured on anti-mouse IgG and soluble biotinylated human TFPI or TFPIB161B, as described in the methods
Protocol: Immunoplates were coated with anti-mouse IgG. Culture supernatants from the hybridoma cells were added to the plates and, after washing, soluble biotinylated human TFPI or TFPIB161B was added to test for specific binding.

- binding result: binds
B1: TFPI-3F18A4B1 (antibody, IgG1, V domains shown)
VH: EVKLVESGGGLVKPGGSLRLSCAASGFTFSNYALSWVRQTPDKRLEWVASISSGGATYYPDSVEGRFTISRDNVRNILYLQMSSLQSEDTAMYYCTRGAYGSDYFDYWGQGTTLTVSS
VL: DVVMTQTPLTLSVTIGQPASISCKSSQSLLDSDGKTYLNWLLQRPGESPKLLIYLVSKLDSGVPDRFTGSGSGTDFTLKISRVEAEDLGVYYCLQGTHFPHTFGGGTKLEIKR
notes: also called TFPI-3F18A2; anti-TFPI antibody 3F18

Reference: patent publication US20110268745A1 (Novo Nordisk, published 2011)
